Read-outs that look alike come from different tables or passages of the source.
Legend:
Test in all cases: native MS
native MS [1] = biological target: the molecule itself
native MS [2] = biological target: the molecule itself; remark: listed apart in the source
native MS [3] = biological target: the molecule itself; remark: listed apart in the source
native MS [4] = biological target: the molecule itself; remark: listed apart in the source
native MS [5] = biological target: the molecule itself; remark: listed apart in the source
native MS [6] = biological target: the molecule itself; remark: listed apart in the source

Row | Protein | percent dimer (dimer/monomer ratio) (native MS [1]) [%] | percent dimer (dimer/monomer ratio) (native MS [2]) [%] | stoichiometry N (native MS [2]) | percent dimer (dimer/monomer ratio) (native MS [3]) [%] | percent dimer (dimer/monomer ratio) (native MS [4]) [%] | percent dimer (dimer/monomer ratio) (native MS [5]) [%] | percent dimer (dimer/monomer ratio) (native MS [6]) [%]
1 | CtRocCOR (RocCOR construct of the Roco protein from Chlorobium tepidum, a.a. 412-946) (domain or fragment) DNPLESPPPEIVKQGKEAVRQYFQSIEEARSKGEALVHLQEIKVHLIGDGMAGKTSLLKQLIGETFDPKESQTHGLNVVTKQAPNIKGLENDDELKECLFHFWDFGGQEIMHASHQFFMTRSSVYMLLLDSRTDSNKHYWLRHIEKYGGKSPVIVVMNKIDENPSYNIEQKKINERFPAIENRFHRISCKNGDGVESIAKSLKSAVLHPDSIYGTPLAPSWIKVKEKLVEATTAQRYLNRTEVEKICNDSGITDPGERKTLLGYLNNLGIVLYFEALDLSEIYVLDPHWVTIGVYRIINSSKTKNGHLNTSALGYILNEEQIRCDEYDPAKNNKFTYTLLEQRYLLDIMKQFELCYDEGKGLFIIPSNLPTQIDNEPEITEGEPLRFIMKYDYLPSTIIPRLMIAMQHQILDRMQWRYGMVLKSQDHEGALAKVVAETKDSTITIAIQGEPRCKREYLSIIWYEIKKINANFTNLDVKEFIPLPGHPDELVEYKELLGLEKMGRDEYVSGKLEKVFSVSKMLDSVISKEERNKER | ~38 | ~97 | 2 | ~90 | ~26 | ~20 | ~87
2 | CtRocCOR L487A mutant (domain or fragment) DNPLESPPPEIVKQGKEAVRQYFQSIEEARSKGEALVHLQEIKVHLIGDGMAGKTSLLKQLIGETFDPKESQTHGANVVTKQAPNIKGLENDDELKECLFHFWDFGGQEIMHASHQFFMTRSSVYMLLLDSRTDSNKHYWLRHIEKYGGKSPVIVVMNKIDENPSYNIEQKKINERFPAIENRFHRISCKNGDGVESIAKSLKSAVLHPDSIYGTPLAPSWIKVKEKLVEATTAQRYLNRTEVEKICNDSGITDPGERKTLLGYLNNLGIVLYFEALDLSEIYVLDPHWVTIGVYRIINSSKTKNGHLNTSALGYILNEEQIRCDEYDPAKNNKFTYTLLEQRYLLDIMKQFELCYDEGKGLFIIPSNLPTQIDNEPEITEGEPLRFIMKYDYLPSTIIPRLMIAMQHQILDRMQWRYGMVLKSQDHEGALAKVVAETKDSTITIAIQGEPRCKREYLSIIWYEIKKINANFTNLDVKEFIPLPGHPDELVEYKELLGLEKMGRDEYVSGKLEKVFSVSKMLDSVISKEERNKER | ~85 | – | – | ~100 | ~96 | ~11 | –

— publication PMC7135905 (Biochemical Journal, 2020)
